The values that follow are results of earlier work, collected in article PMC9760969.

pKd: −log10 of the molar value.

For this data set, the target named is CD95L (Homo sapiens) (UniProt P48023).
Chain of UniProt P48023 (P48023 130-281): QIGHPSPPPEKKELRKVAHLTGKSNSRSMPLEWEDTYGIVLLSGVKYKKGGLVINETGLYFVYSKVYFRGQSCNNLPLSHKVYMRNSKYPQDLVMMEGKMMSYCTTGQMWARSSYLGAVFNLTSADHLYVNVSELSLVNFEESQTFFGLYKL

Usually pKd stands for the Kd on a negative log10 scale, so that one unit is a factor of ten. For DR5 (from UniProt O14763), the negative-log Kd (pKd) was 11.91.
